Assay results as given in paper PMC8710044 (Biochemical pharmacology, 2021).

Columns and labels:
[1] = biological target: CYP2C9 (Homo sapiens, UniProt P11712); assay: Relative CYP contribution to hepatic bioactivation and detoxification, CYP2C9; type: in vitro ADME
[2] = biological target: T1, CYP3A4 (Homo sapiens, UniProt P08684); assay: Relative CYP contribution to hepatic bioactivation and detoxification, CYP3A4; type: in vitro ADME
[3] = biological target: T1, CYP3A4; assay: Steady-state kinetics of overall NSAID metabolism; type: in vitro ADME
[4] = biological target: T2, CYP2C19 (Homo sapiens, UniProt P33261); assay: Steady-state kinetics of overall NSAID metabolism; type: in vitro ADME
[5] = biological target: T2, CYP2C19; assay: Relative CYP contribution to hepatic bioactivation and detoxification, CYP2C19; type: in vitro ADME
[6] = biological target: T3, CYP2C8 (Homo sapiens, UniProt P10632); assay: Relative CYP contribution to hepatic bioactivation and detoxification, CYP2C8; type: in vitro ADME
T3 sequence (P10632 1-490): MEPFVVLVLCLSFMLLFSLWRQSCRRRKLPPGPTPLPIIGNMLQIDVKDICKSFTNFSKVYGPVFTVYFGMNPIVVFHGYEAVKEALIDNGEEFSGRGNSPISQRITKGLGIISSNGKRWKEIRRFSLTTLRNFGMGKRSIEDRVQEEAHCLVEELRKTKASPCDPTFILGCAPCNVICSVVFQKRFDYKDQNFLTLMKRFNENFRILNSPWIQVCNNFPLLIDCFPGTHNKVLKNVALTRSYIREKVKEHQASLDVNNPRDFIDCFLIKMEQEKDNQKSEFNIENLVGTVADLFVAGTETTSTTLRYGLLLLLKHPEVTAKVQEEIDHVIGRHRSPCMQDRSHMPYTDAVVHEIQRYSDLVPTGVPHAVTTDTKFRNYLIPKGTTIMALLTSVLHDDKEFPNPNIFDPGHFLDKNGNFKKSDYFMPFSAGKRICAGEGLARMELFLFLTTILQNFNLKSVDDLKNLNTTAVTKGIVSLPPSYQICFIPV

[7] = biological target: T3, CYP2C8; assay: Steady-state kinetics of overall NSAID metabolism; type: in vitro ADME
[8] = substrate: O=C(O)c1ccccc1Nc1cccc(C(F)(F)F)c1; assay: Steady-state kinetics of overall NSAID metabolism; type: in vitro ADME, human; conditions: other: overall metabolism (depletion) by CYP2C19; 95% CI in parentheses; pH 7.4
[9] = substrate: O=C(O)COC(=O)Cc1ccccc1Nc1c(Cl)cccc1Cl; assay: Steady-state kinetics of overall NSAID metabolism; type: in vitro ADME, human; conditions: other: overall metabolism (depletion) by CYP2C19; 95% CI in parentheses; pH 7.4
[10] = substrate: Cc1cccc(Nc2ccccc2C(=O)O)c1C; assay: Steady-state kinetics of overall NSAID metabolism; type: in vitro ADME, human; conditions: other: overall metabolism (depletion) by CYP2C19; 95% CI in parentheses; pH 7.4
[11] = substrate: O=C(O)c1ccccc1Nc1cccc(C(F)(F)F)c1; assay: Steady-state bioactivation kinetics; type: in vitro ADME, human; conditions: other: CYP2C19; metabolite M2/M4, path 1, 2; 95% CI in parentheses; pH 7.4
[12] = substrate: O=C(O)COC(=O)Cc1ccccc1Nc1c(Cl)cccc1Cl; assay: Steady-state bioactivation kinetics; type: in vitro ADME, human; conditions: other: CYP2C19, 95% CI in parentheses, pH 7.4
[13] = substrate: Cc1cccc(Nc2ccccc2C(=O)O)c1C; assay: Steady-state bioactivation kinetics; type: in vitro ADME, human; conditions: other: CYP2C19, path 1, 2, 95% CI in parentheses, pH 7.4
[14] = substrate: Cc1ccc(Cl)c(Nc2ccccc2C(=O)O)c1Cl; assay: cells, lysate or membranes named; conditions: 95% CI in parentheses, pH 7.4
[15] = substrate: Cc1ccc(Nc2c(F)cccc2Cl)c(CC(=O)O)c1; assay: cells, lysate or membranes named; conditions: 95% CI in parentheses, pH 7.4
[16] = substrate: Cc1c(Cl)cccc1Nc1ccccc1C(=O)O; assay: cells, lysate or membranes named; conditions: 95% CI in parentheses, pH 7.4
[17] = other: CYP2C19, metabolite M2/M4, path 1, 2
[18] = other: CYP2C19, metabolite M6, path 3
[19] = other: overall metabolism (depletion) by CYP2C19
[20] = other: CYP2C19, metabolite M6a, path 3
[21] = other: CYP2C19, metabolite M6b, path 3
[22] = other: CYP2C19, metabolite M2/M4a, path 1, 2
[23] = other: CYP2C19, metabolite M2/M4b, path 1, 2

T1 sequence (P08684 whole entry): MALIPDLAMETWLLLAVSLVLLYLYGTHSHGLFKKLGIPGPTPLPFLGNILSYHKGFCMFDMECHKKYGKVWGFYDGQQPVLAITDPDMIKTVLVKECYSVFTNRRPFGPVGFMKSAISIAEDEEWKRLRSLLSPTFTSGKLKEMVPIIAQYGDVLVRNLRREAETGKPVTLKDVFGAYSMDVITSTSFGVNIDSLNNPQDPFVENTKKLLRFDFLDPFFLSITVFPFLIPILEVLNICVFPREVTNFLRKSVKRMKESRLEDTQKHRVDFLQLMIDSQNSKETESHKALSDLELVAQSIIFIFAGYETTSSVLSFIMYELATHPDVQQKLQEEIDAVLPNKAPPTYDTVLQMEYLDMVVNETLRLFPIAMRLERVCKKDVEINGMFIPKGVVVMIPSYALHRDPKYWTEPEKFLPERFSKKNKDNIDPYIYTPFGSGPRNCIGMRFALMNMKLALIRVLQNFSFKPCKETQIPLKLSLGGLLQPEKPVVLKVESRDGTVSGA
Chain of CYP2C9 (P11712 whole entry): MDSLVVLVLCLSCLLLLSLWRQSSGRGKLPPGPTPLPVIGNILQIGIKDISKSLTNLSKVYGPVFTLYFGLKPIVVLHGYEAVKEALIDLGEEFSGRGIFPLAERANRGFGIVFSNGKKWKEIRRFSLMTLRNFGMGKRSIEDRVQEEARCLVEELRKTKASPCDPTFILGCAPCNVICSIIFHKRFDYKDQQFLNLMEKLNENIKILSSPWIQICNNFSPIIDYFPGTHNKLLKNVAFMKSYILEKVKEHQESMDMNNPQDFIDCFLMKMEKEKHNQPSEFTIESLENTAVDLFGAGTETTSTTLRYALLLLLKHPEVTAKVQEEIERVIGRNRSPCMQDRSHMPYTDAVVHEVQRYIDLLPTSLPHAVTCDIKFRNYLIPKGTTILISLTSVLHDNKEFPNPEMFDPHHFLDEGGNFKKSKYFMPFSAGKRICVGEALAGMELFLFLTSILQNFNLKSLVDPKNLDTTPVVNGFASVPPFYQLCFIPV

In the case of `O=C(O)Cc1ccccc1Nc1c(Cl)cccc1Cl` [DIC, diclofenac], the “Bioactivation Percent” value ([1]; CYP2C9 contribution to total CLbioact of the NSAID) is reported as 97.9%, the “Detoxification Percent” value ([1]; CYP2C9 contribution to total CLdetox of the NSAID) is reported as 12.0% and the “Bioactivation Percent” value ([2]; CYP3A4 contribution to total CLbioact of the NSAID) is reported as 1.1%. For the same molecule, the “Detoxification Percent” value ([2]; CYP3A4 contribution to total CLdetox of the NSAID) was 75.9%, the Km at 60 min ([3]; human, recombinant CYP3A4 Supersomes, pH 7.4) was 130 µM and the Vmax ([3]; overall metabolism (depletion) by CYP3A4, 95% CI in parentheses) was 5480 (5090–5930) pmol/min/nmol protein. The Km at 60 min ([4]; human, recombinant CYP2C19 Supersomes, pH 7.4) was 70.5 µM, the Vmax ([4]; overall metabolism (depletion) by CYP2C19, 95% CI in parentheses) was 1940 (1840–2040) pmol/min/nmol protein and the “Bioactivation Percent” value ([5]; CYP2C19 contribution to total CLbioact of the NSAID) was 1.0%. For the same molecule, the “Detoxification Percent” value ([5]; CYP2C19 contribution to total CLdetox of the NSAID) was 5.5%, the “Bioactivation Percent” value ([6]; CYP2C8 contribution to total CLbioact of the NSAID) was 0% and the “Detoxification Percent” value ([6]; CYP2C8 contribution to total CLdetox of the NSAID) was 6.5%. For the same molecule, the Km at 60 min ([7]; human, recombinant CYP2C8 Supersomes, pH 7.4) was 83 µM and the Vmax ([7]; overall metabolism (depletion) by CYP2C8, 95% CI in parentheses) was 1240 (1170–1320) pmol/min/nmol protein.

B1: CYP2C19 (Homo sapiens) (protein)
chain: MDPFVVLVLCLSCLLLLSIWRQSSGRGKLPPGPTPLPVIGNILQIDIKDVSKSLTNLSKIYGPVFTLYFGLERMVVLHGYEVVKEALIDLGEEFSGRGHFPLAERANRGFGIVFSNGKRWKEIRRFSLMTLRNFGMGKRSIEDRVQEEARCLVEELRKTKASPCDPTFILGCAPCNVICSIIFQKRFDYKDQQFLNLMEKLNENIRIVSTPWIQICNNFPTIIDYFPGTHNKLLKNLAFMESDILEKVKEHQESMDINNPRDFIDCFLIKMEKEKQNQQSEFTIENLVITAADLLGAGTETTSTTLRYALLLLLKHPEVTAKVQEEIERVIGRNRSPCMQDRGHMPYTDAVVHEVQRYIDLIPTSLPHAVTCDVKFRNYLIPKGTTILTSLTSVLHDNKEFPNPEMFDPRHFLDEGGNFKKSNYFMPFSAGKRICVGEGLARMELFLFLTFILQNFNLKSLIDPKDLDTTPVVNGFASVPPFYQLCFIPV
In the case of B1, the Km [8] is reported as 150 (120–180) μM, the kcat [8] is reported as 2500 (2310–2730) pmol/min/nmol protein and the Km [9] is reported as 380 (320–460) μM. For the same molecule, the kcat [9] was 3050 (2760–3410) pmol/min/nmol protein, the Km [10] was 220 (180–260) μM and the kcat [10] was 3060 (2830–3320) pmol/min/nmol protein. For the same molecule, the Km [11] was 28.5 µM, the kcat [11] was 7.7 (7.4–8.1) pmol/min/nmol protein and the Km ([12]; metabolite M2/M4, path 1, 2) was 18.8 µM. For the same molecule, the kcat ([12]; metabolite M2/M4, path 1, 2) was 4.4 (4.2–4.7) pmol/min/nmol protein, the Km ([12]; metabolite M6, path 3) was 74.4 µM and the kcat ([12]; metabolite M6, path 3) was 5.6 (5.2–6.1) pmol/min/nmol protein. For the same molecule, the Km ([12]; metabolite M9, path 4) was 8.9 µM, the kcat ([12]; metabolite M9, path 4) was 4.1 (3.9–4.4) pmol/min/nmol protein and the Km ([13]; metabolite M2/M4a) was 10.8 µM. For the same molecule, the kcat ([13]; metabolite M2/M4a) was 2.0 (1.9–2.1) pmol/min/nmol protein, the Km ([13]; metabolite M2/M4b) was 13.6 µM and the kcat ([13]; metabolite M2/M4b) was 1.5 (1.4–1.6) pmol/min/nmol protein. The Km [14, 17] was 5.8 µM, the kcat [14, 17] was 3.1 (3.0–3.2) pmol/min/nmol protein and the Km [14, 18] was 18.9 µM. The kcat [14, 18] was 64.2 (61.2–67.4) pmol/min/nmol protein, the kcat ([14]; other: CYP2C19, metabolite M9, path 4) was 6.1 (5.7–6.4) pmol/min/nmol protein and the Km [14, 19] was 160 (130–190) μM. The kcat [14, 19] was 2400 (2210–2610) pmol/min/nmol protein, the Km [15, 17] was 36.8 µM and the kcat [15, 17] was 2.5 (2.4–2.7) pmol/min/nmol protein. The Km [15, 20] was 47.6 µM, the kcat [15, 20] was 1.8 (1.7–2.0) pmol/min/nmol protein and the Km [15, 21] was 115 µM. The kcat [15, 21] was 2.4 (2.2–2.6) pmol/min/nmol protein, the Km [15, 19] was 77.2 (64–93) μM and the kcat [15, 19] was 2610 (2450–2790) pmol/min/nmol protein. For the same molecule, the Km [16, 22] was 7.4 µM, the kcat [16, 22] was 2.6 (2.5–2.7) pmol/min/nmol protein and the Km [16, 23] was 11 µM. For the same molecule, the kcat [16, 23] was 3.9 (3.8–4.0) pmol/min/nmol protein, the Km [16, 19] was 110 (94–130) μM and the kcat [16, 19] was 2070 (1950–2210) pmol/min/nmol protein.
